From US20180155451A1 (published 2018)

T1: FcγRIIa R (human, UniProt P12318 34-217)
T1 construct: extracellular domain; Soluble extracellular domain with C-terminal His tag, expressed in FreeStyle293 cells; also called FcgRIIa R; FcγRIIa type R; not shown: His tag attached to the C terminus
T1 sequence (looked up): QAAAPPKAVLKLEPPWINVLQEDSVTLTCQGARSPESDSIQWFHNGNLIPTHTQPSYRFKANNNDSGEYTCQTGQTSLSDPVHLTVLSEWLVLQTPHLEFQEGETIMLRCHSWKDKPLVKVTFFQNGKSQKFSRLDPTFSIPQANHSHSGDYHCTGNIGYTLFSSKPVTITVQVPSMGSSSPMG


What follows are binders tested against T1, FcγRIIa R (assay: SPR (Biacore), antibody captured via antigen peptide, FcγRIIa R as analyte; heterodimerized antibody).
Experimental: Analysis of interaction between objective antibody and the FcγR was carried out using Biacore T100 (GE Healthcare). HBS-EP+ (GE Healthcare) was used as the running buffer, and the measurement temperature was set to 25° C. Chips produced by immobilizing the antigen peptide by the amine coupling method to a Series S Sencor Chip CM5 (GE Healthcare), or alternatively, chips produced by allowing preliminarily biotinylated antigen peptides to interact with and immobilize onto a Series S Sensor Chip SA (certified) (GE Healthcare) were used. Antibodies of interest were captured onto an antigen peptide-immobilized chip, and allowed to interact to each FcγR diluted with running buffer. To regenerate and repeatedly use the chip, the antibodies captured on the chip were washed off by reacting 10 mM glycine-HCl, pH 1.5.

He/Con_2aR	Binder
119 % of control (GpH7-A5/GpH7-B3/GpL16-k0 = 100)	GpH7-A5/GpH7-B3 variant I332_09D/GpL16-k0 (antibody, human IgG1, kappa, heterodimerized; mutation in one H chain only; also called He Ab) heavy 1: not shown heavy 2: not shown light: DIVMTQSPLSLPVTPGEPASISCQASESLVHSNRNTYLHWYLQKPGQSPQLLIYKVSNRFSGVPDRFSGSGSGTDFTLKISRVEAEDVGVYYCSQNTHVPPTFGQGTKVEIERTVAAPSVFIFPPSDEQLKSGTASVVCLLNNFYPREAKVQWKVDNALQSGNSQESVTEQDSKDSTYSLSSTLTLSKADYEKHKVYACEVTHQGLSSPVTKSFNRGEC
110 % of control (GpH7-A5/GpH7-B3/GpL16-k0 = 100)	GpH7-A5/GpH7-B3 variant I332_15Y/GpL16-k0 (antibody, human IgG1, kappa, heterodimerized; mutation in one H chain only; also called He Ab) heavy 1: not shown heavy 2: not shown light: DIVMTQSPLSLPVTPGEPASISCQASESLVHSNRNTYLHWYLQKPGQSPQLLIYKVSNRFSGVPDRFSGSGSGTDFTLKISRVEAEDVGVYYCSQNTHVPPTFGQGTKVEIERTVAAPSVFIFPPSDEQLKSGTASVVCLLNNFYPREAKVQWKVDNALQSGNSQESVTEQDSKDSTYSLSSTLTLSKADYEKHKVYACEVTHQGLSSPVTKSFNRGEC
114 % of control (GpH7-A5/GpH7-B3/GpL16-k0 = 100)	GpH7-A5/GpH7-B3 variant I332_10E/GpL16-k0 (antibody, human IgG1, kappa, heterodimerized; mutation in one H chain only; also called He Ab) heavy 1: not shown heavy 2: not shown light: DIVMTQSPLSLPVTPGEPASISCQASESLVHSNRNTYLHWYLQKPGQSPQLLIYKVSNRFSGVPDRFSGSGSGTDFTLKISRVEAEDVGVYYCSQNTHVPPTFGQGTKVEIERTVAAPSVFIFPPSDEQLKSGTASVVCLLNNFYPREAKVQWKVDNALQSGNSQESVTEQDSKDSTYSLSSTLTLSKADYEKHKVYACEVTHQGLSSPVTKSFNRGEC
105 % of control (GpH7-A5/GpH7-B3/GpL16-k0 = 100)	GpH7-A5/GpH7-B3 variant I332_04F/GpL16-k0 (antibody, human IgG1, kappa, heterodimerized; mutation in one H chain only; also called He Ab) heavy 1: not shown heavy 2: not shown light: DIVMTQSPLSLPVTPGEPASISCQASESLVHSNRNTYLHWYLQKPGQSPQLLIYKVSNRFSGVPDRFSGSGSGTDFTLKISRVEAEDVGVYYCSQNTHVPPTFGQGTKVEIERTVAAPSVFIFPPSDEQLKSGTASVVCLLNNFYPREAKVQWKVDNALQSGNSQESVTEQDSKDSTYSLSSTLTLSKADYEKHKVYACEVTHQGLSSPVTKSFNRGEC

More lines, now with the values behind:

Binder	He/Con_2aR
GpH7-A5/GpH7-B3 variant H268_09D/GpL16-k0 (antibody, human IgG1, kappa, heterodimerized; mutation in one H chain only; also called He Ab) heavy 1: not shown heavy 2: not shown light: DIVMTQSPLSLPVTPGEPASISCQASESLVHSNRNTYLHWYLQKPGQSPQLLIYKVSNRFSGVPDRFSGSGSGTDFTLKISRVEAEDVGVYYCSQNTHVPPTFGQGTKVEIERTVAAPSVFIFPPSDEQLKSGTASVVCLLNNFYPREAKVQWKVDNALQSGNSQESVTEQDSKDSTYSLSSTLTLSKADYEKHKVYACEVTHQGLSSPVTKSFNRGEC	149 % of control (GpH7-A5/GpH7-B3/GpL16-k0 = 100)
GpH7-A5/GpH7-B3 variant H268_10E/GpL16-k0 (antibody, human IgG1, kappa, heterodimerized; mutation in one H chain only; also called He Ab) heavy 1: not shown heavy 2: not shown light: DIVMTQSPLSLPVTPGEPASISCQASESLVHSNRNTYLHWYLQKPGQSPQLLIYKVSNRFSGVPDRFSGSGSGTDFTLKISRVEAEDVGVYYCSQNTHVPPTFGQGTKVEIERTVAAPSVFIFPPSDEQLKSGTASVVCLLNNFYPREAKVQWKVDNALQSGNSQESVTEQDSKDSTYSLSSTLTLSKADYEKHKVYACEVTHQGLSSPVTKSFNRGEC	148 % of control (GpH7-A5/GpH7-B3/GpL16-k0 = 100)
GpH7-A5/GpH7-B3 variant H268_13S/GpL16-k0 (antibody, human IgG1, kappa, heterodimerized; mutation in one H chain only; also called He Ab) heavy 1: not shown heavy 2: not shown light: DIVMTQSPLSLPVTPGEPASISCQASESLVHSNRNTYLHWYLQKPGQSPQLLIYKVSNRFSGVPDRFSGSGSGTDFTLKISRVEAEDVGVYYCSQNTHVPPTFGQGTKVEIERTVAAPSVFIFPPSDEQLKSGTASVVCLLNNFYPREAKVQWKVDNALQSGNSQESVTEQDSKDSTYSLSSTLTLSKADYEKHKVYACEVTHQGLSSPVTKSFNRGEC	127 % of control (GpH7-A5/GpH7-B3/GpL16-k0 = 100)
GpH7-A5/GpH7-B3 variant G236_09D/GpL16-k0 (antibody, human IgG1, kappa, heterodimerized; mutation in one H chain only; also called He Ab) heavy 1: not shown heavy 2: not shown light: DIVMTQSPLSLPVTPGEPASISCQASESLVHSNRNTYLHWYLQKPGQSPQLLIYKVSNRFSGVPDRFSGSGSGTDFTLKISRVEAEDVGVYYCSQNTHVPPTFGQGTKVEIERTVAAPSVFIFPPSDEQLKSGTASVVCLLNNFYPREAKVQWKVDNALQSGNSQESVTEQDSKDSTYSLSSTLTLSKADYEKHKVYACEVTHQGLSSPVTKSFNRGEC	106 % of control (GpH7-A5/GpH7-B3/GpL16-k0 = 100)
GpH7-A5/GpH7-B3 variant G236_10E/GpL16-k0 (antibody, human IgG1, kappa, heterodimerized; mutation in one H chain only; also called He Ab) heavy 1: not shown heavy 2: not shown light: DIVMTQSPLSLPVTPGEPASISCQASESLVHSNRNTYLHWYLQKPGQSPQLLIYKVSNRFSGVPDRFSGSGSGTDFTLKISRVEAEDVGVYYCSQNTHVPPTFGQGTKVEIERTVAAPSVFIFPPSDEQLKSGTASVVCLLNNFYPREAKVQWKVDNALQSGNSQESVTEQDSKDSTYSLSSTLTLSKADYEKHKVYACEVTHQGLSSPVTKSFNRGEC	125 % of control (GpH7-A5/GpH7-B3/GpL16-k0 = 100)
GpH7-A5/GpH7-B3 variant H268_18N/GpL16-k0 (antibody, human IgG1, kappa, heterodimerized; mutation in one H chain only; also called He Ab) heavy 1: not shown heavy 2: not shown light: DIVMTQSPLSLPVTPGEPASISCQASESLVHSNRNTYLHWYLQKPGQSPQLLIYKVSNRFSGVPDRFSGSGSGTDFTLKISRVEAEDVGVYYCSQNTHVPPTFGQGTKVEIERTVAAPSVFIFPPSDEQLKSGTASVVCLLNNFYPREAKVQWKVDNALQSGNSQESVTEQDSKDSTYSLSSTLTLSKADYEKHKVYACEVTHQGLSSPVTKSFNRGEC	128 % of control (GpH7-A5/GpH7-B3/GpL16-k0 = 100)
